Biological target: anaphase-promoting complex/cyclosome (APC/C), phosphorylated, of mitotic cells (human (endogenous in U2OS)) (UniProt P30260)
Test: co-sedimentation

Chain of UniProt P30260 (P30260 whole entry, looked up, one chain of several): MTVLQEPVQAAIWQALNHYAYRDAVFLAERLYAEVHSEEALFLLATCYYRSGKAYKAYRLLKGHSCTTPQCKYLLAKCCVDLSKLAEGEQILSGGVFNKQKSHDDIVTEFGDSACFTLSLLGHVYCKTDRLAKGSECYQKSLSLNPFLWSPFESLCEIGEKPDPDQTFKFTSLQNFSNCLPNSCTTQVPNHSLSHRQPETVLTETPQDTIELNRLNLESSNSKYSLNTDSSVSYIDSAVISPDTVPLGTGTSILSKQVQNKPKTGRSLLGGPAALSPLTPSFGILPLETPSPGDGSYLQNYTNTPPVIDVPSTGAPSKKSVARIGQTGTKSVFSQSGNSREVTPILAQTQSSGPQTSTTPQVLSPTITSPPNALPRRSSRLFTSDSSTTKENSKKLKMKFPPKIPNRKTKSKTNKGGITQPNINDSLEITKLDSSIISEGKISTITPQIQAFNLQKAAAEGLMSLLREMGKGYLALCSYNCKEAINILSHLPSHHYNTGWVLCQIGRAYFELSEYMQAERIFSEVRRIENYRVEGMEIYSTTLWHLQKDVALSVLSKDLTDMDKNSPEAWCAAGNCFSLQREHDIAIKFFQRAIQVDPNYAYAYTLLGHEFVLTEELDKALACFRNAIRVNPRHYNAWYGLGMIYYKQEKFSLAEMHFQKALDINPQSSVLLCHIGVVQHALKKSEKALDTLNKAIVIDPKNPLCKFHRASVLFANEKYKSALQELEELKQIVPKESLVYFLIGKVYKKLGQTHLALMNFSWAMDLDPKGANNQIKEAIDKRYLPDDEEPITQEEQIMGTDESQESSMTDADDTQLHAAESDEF

Which percent comigrating does the source give for “cyclin B1–N–Cks1–Venus (from UniProt P14635;P61024)” here?
The percent comigrating was 40%.

From publication PMC2928021
